We go through nine molecules from patent publication US8598312B2, “Inhibitors of antigen presentation by MHC class II molecules” (Provid Pharmaceuticals, Inc., priority 2003, dated 2013).

Where a SMILES comes first, the peptide text is derived from it. Where no end group is shown, it is not given here. [ ]: non-standard residue; d: D form. Ala(indol-4-yl) = N[C@@H](Cc1cccc2[nH]ccc12)C(=O)O; Gly(cPent) = N[C@H](C(=O)O)C1CCCC1; Tic = O=C(O)[C@@H]1Cc2ccccc2CN1; Chg = N[C@H](C(=O)O)C1CCCCC1; Pip = O=C(O)[C@@H]1CCCCN1; Idg = not defined here

One assay concerns T cell proliferation. Conditions: cited from earlier work.
For assay [1] the following is noted: in vivo; cited from earlier work.
The target in the next assay is DR13 (HLA-DR molecules). Briefly: HLA II binding assay, DR13. Set-up: species or system human. The following applies: read-out: Inhibition of peptide binding IC50 DR13.
Assay [2] deals with MHC class II HLA-DR2 (DRA*0101/DRB1*1501) (human). Briefly: competition binding assay, purified HLA-DR, biotinylated reference peptide SEQ ID NO 107 as competitor, L243 capture.
A further assay deals with DRB1*1501 molecules (Homo sapiens, UniProt P01903+P01911). The following applies: DR2 haplotype; cited from earlier work.
The next assay concerns the target DRB5*0101 molecules (Homo sapiens, UniProt P01903+Q30154). The following applies: DR2 haplotype; cited from earlier work.
The target of another assay is T1, DR2a (human, UniProt P01903 26-216, limits assumed).
T1 construct: mature
Briefly: competition binding assay, purified HLA-DR, biotinylated reference peptide (not named), L243 capture.

Assay [3] has as its target T2, MHC class II HLA-DR2 (DRA*0101/DRB1*1501) (human, UniProt P01903 26-254; P01911 30-266, limits assumed).
T2 construct: mature; Detergent-solubilised native molecule purified from cells; also called DR2b
Briefly: competition binding assay, purified HLA-DR, biotinylated reference peptide SEQ ID NO 107 as competitor, L243 capture.

As for a(Cha)AAAKTAAAAa-NH2, the “suppression of T cell proliferation in response to protein antigens” value with T cell proliferation is given as “did not supress T cell proliferation”. Further, the “activity in animal models of autoimmune disease” value in assay [1] is “did not show activity”.

Take `CC(=O)N[C@H](C(=O)N[C@@H](CCCNC(=N)N)C(=O)N1Cc2ccccc2C[C@H]1C(=O)N[C@@H](Cc1ccccc1)C(=O)N1CCCC[C@H]1C(N)=O)C1CCCC1` [Ac(Cpg)R(Tic)F(hPro), Ac(Cpg)R(Tic)F(homo Pro)] (Ac-[Gly(cPent)]R[Tic]F[Pip]-NH2; N-terminus and C-terminus assumed): on DR13 (HLA-DR molecules), the half-maximal inhibitory concentration (IC50) was greater than 100000 nM. Molecule Ac(Cpg)R(Tic)F(hPro) (peptide) gave a half-inhibitory concentration (IC50) in assay [2] of 75 nM. With “MBP (84-102): immunodominant myelin basic protein (84-102) peptide (DPGSRPHLIRLFSRDAPGR; Myelin basic protein; UniProt P02686 84-102, looked up, fragment)”, the “binding affinity to DRB1*1501 molecules” value with DRB1*1501 molecules was “high affinity”. In addition, the “binding affinity to DRB5*0101 molecules” value with DRB5*0101 molecules is given as “high affinity”. Regarding Ac-V[Chg]RFFK (not fully specified; printed as AcV(Chg)RFFK, also called Entry 85) [AcV(Chg)RFFK], the IC50 with DR2a was 685 nM; in assay [3] it was 3 nM. The matching figures for Ac-[Gly(cPent)]RFFKNI (not fully specified; printed as Ac(Cpg)RFFKNI, also called Entry 25) [Ac(Cpg)RFFKNI]: 630 nM and 25 nM. The matching figures for Ac-[Chg]RF[Ala(indol-4-yl)]KNI (not fully specified; printed as Ac(Chg)RF(4′-IndolylAla)KNI, also called Entry 79) [Ac(Chg)RF(4′-IndolylAla)KNI]: 3580 nM and 6 nM. Regarding Ac-VHFFKNI (also called Entry 2) [AcVHFFKNI], in assay [3], the IC50 came out at 450 nM. As to Ac-[Idg]RFFKNI (not fully specified; printed as Ac(Idg)RFFKNI; reading uncertain, also called Entry 64) [Ac(Idg)RFFKNI], the IC50 with DR2a is 17 nM; in assay [3] it was 90 nM.

A word on the IC50: it is the concentration at which inhibition is half-maximal.
